Test results published in patent publication US20220362355.

Target: fibrin clot obtained by reacting fibrinogen with thrombin

B1: recombinant protein HtrA2 (residues 134-458 of the HtrA2 amino acid sequence) (protein)
chain: AVPSPPPASPRSQYNFIADVVEKTAPAVVYIEILDRHPFLGREVPISNGSGFVVAADGLIVTNAHVVADRRRVRVRLLSGDTYEAVVTAVDPVADIATLRIQTKEPLPTLPLGRSADVRQGEFVVAMGSPFALQNTITSGIVSSAQRPARDLGLPQTNVEYIQTDAAIDFGNSGGPLVNLDGEVIGVNTMKVTAGISFAIPSDRLREFLHRGEKKNSSSGISGSQRRYIGVMMLTLSPSILAELQLREPSFPDVQHGVLIHKVILGSPAHRAGLRPGDVILAIGEQMVQNAEDVYEAVRTQSQLAVQIRRGRETLTLYVTPEVTE
A415 (dissolution of the fibrin clot, spectrophotometer, 2 mg/ml enzyme, 37 C, 24 h): 1 ± 0.09 A415
